Measured values as given in patent publication US20210138083A1 (INATHERYS, published 2021).

Legend:
[1] = biological target: T1, human transferrin receptor (Transferrin receptor protein 1 isoform 1, Homo sapiens, NCBI NP_003225.2) (Homo sapiens, UniProt P02786 1-760); assay: cell-based or functional assay
[2] = biological target: T1, human transferrin receptor (Transferrin …); assay: flow cytometry, biotinylated antibody on THP-1 and MEC-1 cells, streptavidin Alexa F488
Procedure: Serial dilutions (5 to 0.05 ug/mL) of both biotinylated antibodies (antibody A24 and antibody of ADC INA01-SDV1) were performed and incubated on THP-1 and MEC-1 cell lines. The binding of the diluted antibodies was detected by Flow cytometry using streptavidin Alexa F488 (available at ThermoFisher scientific).

T1 sequence (P02786 whole entry, canonical isoform): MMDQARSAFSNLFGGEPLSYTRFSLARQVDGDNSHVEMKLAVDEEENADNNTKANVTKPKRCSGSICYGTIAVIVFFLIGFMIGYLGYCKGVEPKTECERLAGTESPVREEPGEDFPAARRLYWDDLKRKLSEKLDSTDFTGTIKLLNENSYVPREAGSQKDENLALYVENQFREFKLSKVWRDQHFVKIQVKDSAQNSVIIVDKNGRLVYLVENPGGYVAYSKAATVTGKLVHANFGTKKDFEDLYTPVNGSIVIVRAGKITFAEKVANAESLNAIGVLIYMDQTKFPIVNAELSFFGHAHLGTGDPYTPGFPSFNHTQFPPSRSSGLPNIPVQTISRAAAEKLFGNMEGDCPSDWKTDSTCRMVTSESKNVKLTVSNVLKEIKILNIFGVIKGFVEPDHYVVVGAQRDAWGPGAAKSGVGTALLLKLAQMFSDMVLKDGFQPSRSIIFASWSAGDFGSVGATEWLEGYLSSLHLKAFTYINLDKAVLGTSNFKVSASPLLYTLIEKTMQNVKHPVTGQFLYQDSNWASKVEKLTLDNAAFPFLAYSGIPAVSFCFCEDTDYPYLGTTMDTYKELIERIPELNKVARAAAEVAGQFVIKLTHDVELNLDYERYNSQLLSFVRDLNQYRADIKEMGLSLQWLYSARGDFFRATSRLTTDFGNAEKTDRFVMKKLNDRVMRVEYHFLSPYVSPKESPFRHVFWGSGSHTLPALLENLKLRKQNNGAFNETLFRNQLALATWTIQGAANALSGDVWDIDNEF

B1: INA01-SDV1 (antibody, human IgG4 S228P, kappa, V domains shown)
VH: QVQLVQSGPELKKPGASVKVSCKASGYTFTNQGMNWVKQAPGKGLKWMGWINTYTGEPINADDFKGRFVISLDTSASTAYLQISSLKAEDTAVYFCVREGWDSMDYWGQGTSVTVSS
VL: QIVLTQSPATLSVSPGERATLSCSASSSVNYMHWFQQKPGQSPRLLIYSTSNRATGIPARFSGSGSGTSYTLTISSLEPEDFAVYYCQQRSSYPLTFGQGTKLEIKR
modifications: linker APN (formula IV)-valine-citrulline-para-aminobenzyl ester-MMAE attached through the cysteine residues (thiols); biotinylated in Example 1
IC50 of cell proliferation of HL-60 acute myeloid leukemia cell line [1]: 0.08 µg/mL

B2: A24 (antibody, V domains shown)
VH: QIQLVQSGPELKKPGETVKISCKASGYTFTNQGMNWVKQAPGKGLKWMGWINTYTGEPINADDFKGRFAISLETSASTAYLQINNLKNEDMATYFCVREGWDSMDYWGQGTSVTVSS
VL: QIVLTQSPAIMSASPGEKVTITCSASSSVNYMHWFQQKPGTSPKLWIYSTSNLASGVPARFSGSGSGTSYSLTISRMEAEDAATYYCQQRSSYPLTFGAGTKLELKR
modifications: biotinylated in Example 1
notes: Mouse monoclonal IgG (IgG2kappa) as disclosed in WO 2005/111082; also called antibody A24; murine A24 antibody
binding result [2]: binds
